The values below come from patent US20170081386A1 (APOGENIX, published 2017).

Assay [1] has as its target T1, TRAIL-Receptor 1-Fc (R&D Systems) (UniProt O00220 24-239, limits assumed).
T1 construct: Bought reagent; also called Fc-fusion protein of TRAIL-Receptor 1; not shown: Fc part of the bought fusion
T1 sequence (looked up): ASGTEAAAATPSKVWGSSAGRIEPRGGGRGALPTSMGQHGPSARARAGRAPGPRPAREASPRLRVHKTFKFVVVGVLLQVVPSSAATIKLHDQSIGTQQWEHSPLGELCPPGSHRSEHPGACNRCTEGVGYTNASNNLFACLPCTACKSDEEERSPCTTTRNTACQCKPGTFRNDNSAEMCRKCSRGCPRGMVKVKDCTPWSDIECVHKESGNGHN
The assay can be described thus: Streptactin-ELISA (FIG. 14A), supernatant immobilized, constant concentration of TRAIL-Receptor 1-Fc. As for the experimental part: (§1) To determine the binding of receptors to constructed ligands, streptactin-coated 96-well microplates were used. Therefore, supernatants from transiently transfected HEK293 cells, mouse sera or purified proteins were immobilized on streptactin-plates (IBA GmbH) for 1-3 hours in PBS. Samples were diluted in ELISA binding/blocking buffer (PBS, 0.1% Tween-20, 20% SuperBlock T20-PBS (Pierce)). Plates were washed with PBS+0.1% Tween-20 and incubated with mouse-anti-TRAIL antibody (Pharmingen, clone RIK-2), TRAIL-Receptor 1-Fc (R&D Systems), TRAIL-Receptor 2-Fc (R&D Systems), TACl-Fc (R&D Systems) or HVEM-Fc (R&D Systems) for one hour at room temperature. Plates were again washed and Fc-proteins were detected with anti-human- or anti-mouse-Fc-specific peroxidase-conjugated antibodies (Sigma). Colour reaction was done by addition of 100 μl per well of TMB substrate (Kem-En-Tec Diagnostics) and the absorbance at 450 nm and 630 nm was determined with an ELISA reader after addition of 25 μl of 25% H₂SO₄ as stop-solution. Values were calculated as 450 nm-630 nm with MS Excel.
The selectivity of TRAIL-Receptor 1 or TRAIL-Receptor 2 towards fusion proteins of SPD/ccSPD and TRAIL, TRAILR1mut and TRAILR2mut was shown by Streptactin-ELISA. Therefore, TRAIL-SPD-fusion proteins in supernatants from transiently transfected HEK293 cells were immobilized on Streptactin coated microplates. Cell supernatant from untransfected cells served as negative control. Specifically bound proteins were detected with constant (A, B) or varying (C, D) concentrations of either TRAIL-Receptor 1-Fc or TRAIL-Receptor 2-Fc. As shown in (A), the ligand TRAILR1mut fused to SPD variants is deteced by TRAIL-Receptor 1, whereas the ligand TRAILR2mut is not. As shown in (B), the ligand TRAILR2mut is preferentially detected by TRAIL-Receptor 2, whereas TRAILR1mut-and TRAIL wild-type constructs are equally well detected. As shown in C, TRAIL-Receptor 1-Fc bound to TRAIL-R1 mut-ASPD and TRAIL-ASPD equally well over the whole receptor titration range, whereas TRAIL-R2mut-ASPD is not detected. As shown in D, TRAIL-Receptor 2-Fc bound to TRAIL-R2mut-ASPD and TRAIL-ASPD equally well over the receptor titration range analyzed, whereas the signal for TRAIL-R1mut-ASPD decreased rapidely with decreasing concentrations of receptor.
For orientation: An ELISA detects its analyte on a solid surface through an enzyme-linked reagent.

Assay [2] has as its target T1, TRAIL-Receptor 1-Fc (R&D Systems). Description: Streptactin-ELISA, purified trimeric ligand immobilized via Strep-tag II, receptor-Fc detection. The procedure:
as §1
Varying concentrations (0-10 microgram/ml) of affinity and SEC purified, trimeric LIGHT-ASPD were used for immobilized via the Strep-tag II on Streptactin-coated microplates. LIGHT-ASPD was then detected in a ELISA set-up using 100 ng/ml of Fc-fusion proteins of the receptors HVEM and TRAIL-Receptor 1, respectively. […]

B1: TRAILR2mut-D-CCSPD (ligand)
chain: QRVAAHITGTRGRSNTLSSPNSKNEKALGRKINSWESSRSGHSFLSNLHLRNGELVIHEKGFYYIYSQTQFKFREEIKENTKNDKQMVQYIYKYTSYPDPILLMKSARNSCWSKDAEYGLYSIYQGGIFELKENDRIFVSVTNERLLQMDHEASFFGAFLVGSGLPDVASLRQQVEALQGQVQHLQAAFSQYKKVELFPNGPSSSSSSAWSHPQFEK
notes: it is assembled from the construct description; also called TRAILR2mut (member of the SPD variants)
B1: the binding result in assay [1] is listed as “no binding”.

B2: TRAILR2mut-ASPD (ligand)
chain: QRVAAHITGTRGRSNTLSSPNSKNEKALGRKINSWESSRSGHSFLSNLHLRNGELVIHEKGFYYIYSQTQFKFREEIKENTKNDKQMVQYIYKYTSYPDPILLMKSARNSCWSKDAEYGLYSIYQGGIFELKENDRIFVSVTNERLLQMDHEASFFGAFLVGSSGSSGSSGSGLPDVASLRQQVEALQGQVQHLQAAFSQYKKVELFPNGQSVGEKIFKTAGFVKPFTEAQLLCTQAGGQLASPRSAAENAALQQLVVAKNEAAFLSMTDSKTEGKFTYPTGESLVYSNWAPGEPNDDGGSEDCVEIFTNGKWNDRACGEKRLVVCEFGGSPSSSSSSAWSHPQFEK
notes: TRAIL-Receptor 2 selective mutein; homotrimer by SEC; also called Sp-TRAILR2mut-ASPD
As to B2, in assay [1], the binding result was “no binding”.

B3: TRAILR2mut-A-CCSPD (ligand)
chain: QRVAAHITGTRGRSNTLSSPNSKNEKALGRKINSWESSRSGHSFLSNLHLRNGELVIHEKGFYYIYSQTQFKFREEIKENTKNDKQMVQYIYKYTSYPDPILLMKSARNSCWSKDAEYGLYSIYQGGIFELKENDRIFVSVTNERLLQMDHEASFFGAFLVGSSGSSGSSGSGLPDVASLRQQVEALQGQVQHLQAAFSQYKKVELFPNGPSSSSSSAWSHPQFEK
notes: as for B1
As for B3, in assay [1], the binding result is given as “no binding”.

B4: LIGHT-ASPD (ligand)
chain: EVNPAAHLTGANSSLTGSGGPLLWETQLGLAFLRGLSYHDGALVVTKAGYYYIYSKVQLGGVGCPLGLASTITHGLYKRTPRYPEELELLVSQQSPCGRATSSSRVWWDSSFLGGVVHLEAGEEVVVRVLDERLVRLRDGTRSYFGAFMVGSSGSSGSSGSGLPDVASLRQQVEALQGQVQHLQAAFSQYKKVELFPNGQSVGEKIFKTAGFVKPFTEAQLLCTQAGGQLASPRSAAENAALQQLVVAKNEAAFLSMTDSKTEGKFTYPTGESLVYSNWAPGEPNDDGGSEDCVEIFTNGKWNDRACGEKRLVVCEFGGSPSSSSSSAWSHPQFEK
notes: also called Sp-LIGHT-ASPD; LIGHT fusion protein
Take B4: the binding result in assay [2] is “no binding”.

B5: TRAILR2mut-D-SPD (ligand)
chain: QRVAAHITGTRGRSNTLSSPNSKNEKALGRKINSWESSRSGHSFLSNLHLRNGELVIHEKGFYYIYSQTQFKFREEIKENTKNDKQMVQYIYKYTSYPDPILLMKSARNSCWSKDAEYGLYSIYQGGIFELKENDRIFVSVTNERLLQMDHEASFFGAFLVGSGLPDVASLRQQVEALQGQVQHLQAAFSQYKKVELFPNGQSVGEKIFKTAGFVKPFTEAQLLCTQAGGQLASPRSAAENAALQQLVVAKNEAAFLSMTDSKTEGKFTYPTGESLVYSNWAPGEPNDDGGSEDCVEIFTNGKWNDRACGEKRLVVCEFGGSPSSSSSSAWSHPQFEK
notes: as for B1
Turning to B5, the binding result in assay [1] is given as “no binding”.
